One substance from patent US20070004619A1, “Relaxin superfamily peptide analogues” (Howard Florey Institute of Experimental Physiology and …, priority 2003, published 2007) can be followed below.

Positions of bridges follow the written chain, without caps; N, C: chain ends. No end group written: not given here.

One series concerns the target T1, human LGR8 (Homo sapiens, UniProt Q8WXD0).
T1 construct: expressed in transfected cells; host or cells: human 293T cells, stably transfected
Put plainly: Functional cAMP assay: inhibition of the INSL3 response at the native INSL3 receptor (LGR8). Conditions: FIG. 4; human 293T cells stably transfected with human LGR8; cAMP ELISA. Format: cell-based. The procedure:
Human 293T cells stably transfected with human LGR7, or LGR8 were preincubated in the presence of 0.25 mM 3-isobutyl-1-methyl xanthine (IBMX, Sigma) before various treatments for 30 minutes. At the end of the incubation cells were lysed for measurement of cAMP using a well-characterized cAMP ELISA (Satoko et al., J Biol Chem, 278:7855-7862). All experiments were repeated at least three times using cells from independent transfections, Results are plotted as pmol cAMP/10^4 cells.

Series [1] can be described thus: Circular dichroism (CD) spectroscopy. Format: physicochemical. As to conditions: FIG. 5; in water and phosphate buffered saline. Here is the method:
Circular Dichroism (CD) Spectroscopy:
CD spectra were taken on a Jasco J-720 instrument at room temperature in a 1 mm path-length cell, Doubly distilled water, 10 mM sodium phosphate buffer containing 120 mM NaCl pH 7.4, and spectroscopy grade trifluoroethanol (TFE) were used as solvents. The peptide concentrations were made to 1 μM, determined by quantitative RP-HPLC and amino acid analysis (ref). Curves were smoothed by the algorithm provided by Jasco, Mean residue ellipticity ([θ]MR) is expressed in degrees×cm2/dmole by using the molecular mass. CD spectra evaluations were based on comparison with known peptide conformations (Otvos, L., Jr. 1996. from Neuropeptide protocols. Irvine, G. & Williams, C., Eds. pp 153-161. Humana Press, Totowa, N.J.).

T1 sequence (Q8WXD0 whole entry): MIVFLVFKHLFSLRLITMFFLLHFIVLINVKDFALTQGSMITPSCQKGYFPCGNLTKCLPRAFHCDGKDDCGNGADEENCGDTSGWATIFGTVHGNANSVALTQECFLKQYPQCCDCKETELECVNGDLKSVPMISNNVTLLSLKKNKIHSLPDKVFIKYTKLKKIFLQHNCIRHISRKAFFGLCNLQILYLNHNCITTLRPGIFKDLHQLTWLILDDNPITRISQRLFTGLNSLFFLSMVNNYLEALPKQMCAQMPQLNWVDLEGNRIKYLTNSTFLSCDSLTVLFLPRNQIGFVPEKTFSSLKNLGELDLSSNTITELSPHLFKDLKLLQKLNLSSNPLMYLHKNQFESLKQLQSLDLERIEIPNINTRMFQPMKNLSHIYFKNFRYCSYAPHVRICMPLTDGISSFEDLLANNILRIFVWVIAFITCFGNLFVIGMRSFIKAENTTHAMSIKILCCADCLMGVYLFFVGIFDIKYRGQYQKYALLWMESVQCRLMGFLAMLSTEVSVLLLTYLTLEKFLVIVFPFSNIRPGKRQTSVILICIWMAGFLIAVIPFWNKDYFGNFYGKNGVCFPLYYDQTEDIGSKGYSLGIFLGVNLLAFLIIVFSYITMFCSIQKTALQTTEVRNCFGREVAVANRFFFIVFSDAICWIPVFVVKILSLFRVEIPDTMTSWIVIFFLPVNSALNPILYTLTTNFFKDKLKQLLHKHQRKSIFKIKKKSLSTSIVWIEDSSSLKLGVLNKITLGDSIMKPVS

With “cINSLa: cyclic INSL3 B-chain mimetic; Glu4 and Arg26 replaced with cysteine and a disulphide bond formed (PTPCMREKLCGHHFVRALVRVCGGPCWSTEA; disulfide 4-26; cysteine pairing not given here)”, in the series with human LGR8, the “inhibition of the response of INSL3 (measured by cAMP response) to the native INSL3 receptor (LGR8)” value is given as “antagonistic activity”. The “alpha-helical content from CD spectra” value in series [1] was “significant alpha-helical content”.
